Data on 17 sequences can be found in the supplement of paper PMC9170038.

The subject of this data set is MS2 coat protein. Briefly: apparent KD of MS2 coat protein; higher = weaker reporter binding. The conditions noted are these: Eterna round: R107. As for the experimental part: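 RNA-MaP round R107: designed RNA switches with theophylline, tryptophan, arginine or FMN aptamers are transcribed on-chip within common flanks. They are titrated with SNAP-549-labelled MS2 coat protein in RNA-MaP buffer (100 mM Tris pH 7.5, 80 mM KCl, 4 mM MgCl2), without ligand or with the indicated ligand. Median apparent KD per design.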

Setting [1] is: input ligand: theophylline 20 uM.
The mark [2] stands for this setting: input ligand: tryptophan 2.4 mM.
Setting [3] is: input ligand: theophylline 2 mM.

Take “AUCGUACCUGAUGAUACCAGCAAGUGAUCAUAACAUGAGGAUCACCCAUGUAAUCAGUGAUGCCCUUGGCAGCAUAAUCGAUACA [Same State - Theophylline B (Freestyle 4)]”: the “apparent KD of MS2 coat protein” value was found to be 91.6 nM (input ligand: arginine 13.2 mM), 204 nM under setting [1] and 164 nM under setting [2].

Regarding “UGACAUGAGGAUCACCCAUGUUUAGAUGAACGAGGACCGGUACGGCCGCCACUCGAUAAGUGGAAAGAGCGAGGGAUCGCAUGCU [Same State Trp A GF5]”, the “apparent KD of MS2 coat protein” value reads like this: (input ligand: arginine 13.2 mM) 12.1 nM; (input ligand: none) 12.9 nM; under setting [1], 17.5 nM; under setting [3], 12.9 nM; under setting [2], 14.4 nM.

As for “AACCACAUGAGGAUCACCCAUGUGACCGCUCGAGGACCGGUACGGCCGCCACUCGUGGAGGGACUUAUGCGUUAUCCGGGUAAAU [theeternabot_sameState_MS2_Trp_A_29]”, the “apparent KD of MS2 coat protein” value is 16.9 nM (input ligand: arginine 13.2 mM), 27 nM under setting [1] and 20.9 nM under setting [3].

In the case of “GGAAGGACAGUUGAUACCAGUUUCAAAGGCGGUAAUCACUACAUGAGGAUCACCCAUGUCAACCCUUGGCAGCAAUAGACCGUGG [theeternabot_exclusion_MS2_Theo_B_6]”, the “apparent KD of MS2 coat protein” value reads like this: (input ligand: arginine 13.2 mM) 24 nM; under setting [1], 28.1 nM; under setting [2], 19.2 nM.

For the sequence “UAAUAAAUAAAUCCAAGGUGUAGGUCAGAUACCAGCCAGAUAACUGGCCCUUGGCAGCUGAAUAAACCUGAGGAACACCCAGGUA [TheoAS 24 #OpenEnded #MS2Late #AlternativeMS2]”, the “apparent KD of MS2 coat protein” value is 26.7 nM (input ligand: arginine 13.2 mM); 31.6 nM (input ligand: none); 49.5 nM under setting [1]; 197 nM under setting [3]; 27.3 nM under setting [2].

Consider “CCUCAUGUGGUGCUGCACAUGAGAGGUGAUACCAGCAUCGAAAGAUGCCCUUGGCAGCACCAACAUGAGGAUCACCCAUGUAAUA [(M)'-(T)'-(M)''-(T1)-(T2)-(M1)-(M2)_Design1]”, for which the “apparent KD of MS2 coat protein” value (input ligand: arginine 13.2 mM) is 27 nM, the “apparent KD of MS2 coat protein” value under setting [1] is 94 nM and the “apparent KD of MS2 coat protein” value under setting [2] is 25 nM.

For “GGCACAUAGUCGGCCGCCACUAGAAUAUAGUGGAAUAACAUGAGGAUCACCCAUGUAUUUGGGACUAGGACCGGGACUAUGUGCC [Bear]”, the “apparent KD of MS2 coat protein” value (input ligand: arginine 13.2 mM) turned out to be 33.2 nM; the “apparent KD of MS2 coat protein” value (input ligand: none) turned out to be 33.7 nM; the “apparent KD of MS2 coat protein” value under setting [1] turned out to be 41.9 nM; the “apparent KD of MS2 coat protein” value under setting [3] is 42.2 nM; the “apparent KD of MS2 coat protein” value under setting [2] stood at 20.2 nM.

Take “AUACAUGAGGAUCACCCAUGUAUAGUUGAAGGAGCGACCAGAGGGUCAGGUAGGUCGCAGCGCAUGAGGUAAGCCCAUGUAUGCU [#1 Exclusion - Arginine A Attempt #16 (Inspired by Pi)]”: the “apparent KD of MS2 coat protein” value turned out to be 22.7 nM (input ligand: arginine 13.2 mM); 22.8 nM (input ligand: none); 44 nM under setting [1]; 70 nM under setting [3]; 17.2 nM under setting [2].

For “UUUUACGCAAGUAAUUCCCGGGAACCGGAUACCAGCUCCUCCAACAGCCCUUGGCAGCCGACCACAUGAGGAUCACCCAUGUUUC [theeternabot_exclusion_MS2_Theo_A_28]”, the “apparent KD of MS2 coat protein” value is, setting by setting: (input ligand: arginine 13.2 mM) 12 nM; under setting [1], 16.1 nM; under setting [2], 12.7 nM.

Take “UUCAGCUAGUCGGCCGCCACUACAUGAGGAUCACCCAUGUAGGUCCACACUGCUUCGGCAGUGAGUAGGACCGGGACUAGCUGAG”: the “apparent KD of MS2 coat protein” value runs as follows: (input ligand: arginine 13.2 mM) 7.07 nM; (input ligand: none) 9.66 nM; under setting [1], 15.2 nM; under setting [3], 10.5 nM; under setting [2], 15.4 nM.

Consider “AGGUGACAUGAGGAUCACCCAUGUGGCUUACGAGGACCGGUACGGCCGCCACUCGGUGUGACCUCCGCAUUCACAUAAUAAUCUU [Rilala]”, for which the “apparent KD of MS2 coat protein” value runs as follows: (input ligand: arginine 13.2 mM) 37.4 nM; under setting [1], 131 nM; under setting [3], 126 nM.

On to “AGUUACUCGAACAUGGUUGACGAGUGGCAACGAGGACCGGUACGGCCGCCACUCGAAUAAACAUGAGGAUCACCCAUGUACAAAU [T''-M'-T'-T-MS2 - Design 10.b]”, for which the “apparent KD of MS2 coat protein” value (input ligand: arginine 13.2 mM) was found to be 61.9 nM, the “apparent KD of MS2 coat protein” value under setting [1] stood at 148 nM and the “apparent KD of MS2 coat protein” value under setting [3] is 160 nM.

Consider “ACCUGCGUUUGUUUCUUUCUGACGCAGGUUCGAGGACCGGUACGGCCGCCACUCGGACAUGAGGAUCACCCAUGUUUGAAAUGGG [#01 Exclusion Tryptophan A]”, for which the “apparent KD of MS2 coat protein” value by setting is: (input ligand: arginine 13.2 mM) 90.4 nM; under setting [1], 248 nM; under setting [3], 313 nM.

Consider “GGAUUACGAAAGUAGUCCUCAAGUUCGAGACGAGGACCGGUACGGCCGCCACUCGAACAUGAGGAUCACCCAUGUAGCGAAAGCU [Tryptophan A 22]”, for which the “apparent KD of MS2 coat protein” value is 86.6 nM (input ligand: arginine 13.2 mM); 195 nM (input ligand: none); 382 nM under setting [1]; 425 nM under setting [3]; 181 nM under setting [2].

Regarding “AGACGAGAAGAGGUUUACCCAUGUACAGAAGGAGCGUCGUUGACGACAGGUAGGUCGCUGGAAACAUGAGGAUCACCCAUGUUGA [#06 Exclusion - Arginine A]”, the “apparent KD of MS2 coat protein” value by setting is: (input ligand: arginine 13.2 mM) 27.4 nM; (input ligand: none) 40.8 nM; under setting [1], 49.1 nM; under setting [3], 59.7 nM; under setting [2], 48.3 nM.

With “UAUCGUCAGACGGCCGCCACUAGAACAUGAGGAUCACCCAUGUAAGUGGCUGGUUCAUGGGUGUCUAGGACCGGGUCUGACGAAU [(Trp1)-(Ms2)-(T)'-(M)'-(Trp2)_Design20]”, the “apparent KD of MS2 coat protein” value worked out at 14.8 nM (input ligand: arginine 13.2 mM), 21.2 nM under setting [1] and 17.6 nM under setting [3].

On to “AAUAAUAAGGCGGCCGCCACUAAACAUGAGGAUCACCCAUGUCUCGAGCGCUUGCGUUUGGGAAGUAGGACCGGGCCAAUAAUAA [Exclusion - Tryptophan B (Freestyle 5)]”, for which the “apparent KD of MS2 coat protein” value runs as follows: (input ligand: arginine 13.2 mM) 14.2 nM; (input ligand: none) 14.5 nM; under setting [1], 16.4 nM; under setting [3], 18.1 nM; under setting [2], 14.2 nM.
